Experimental data taken from US20210155689A1 (SHANGHAI PHARMAEXPLORER, published 2021).

T1: human LAG-3 on cells (HEK293-hLAG-3 stable cell line) (human, UniProt P18627 23-525)
T1 sequence: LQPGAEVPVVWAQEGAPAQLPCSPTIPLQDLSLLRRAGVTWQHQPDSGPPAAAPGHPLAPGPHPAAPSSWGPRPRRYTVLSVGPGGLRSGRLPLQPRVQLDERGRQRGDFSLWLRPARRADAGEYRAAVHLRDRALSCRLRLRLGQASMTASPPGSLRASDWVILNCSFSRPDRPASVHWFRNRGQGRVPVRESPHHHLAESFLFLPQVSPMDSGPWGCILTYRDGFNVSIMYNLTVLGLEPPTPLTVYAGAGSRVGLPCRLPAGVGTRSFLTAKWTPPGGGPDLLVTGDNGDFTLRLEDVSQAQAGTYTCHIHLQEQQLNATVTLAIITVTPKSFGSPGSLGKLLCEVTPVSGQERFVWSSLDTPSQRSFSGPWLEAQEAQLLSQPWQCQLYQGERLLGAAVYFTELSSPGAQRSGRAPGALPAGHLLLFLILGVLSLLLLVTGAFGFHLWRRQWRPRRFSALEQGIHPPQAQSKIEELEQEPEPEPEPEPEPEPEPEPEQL

T2: mouse LAG-3 protein with hFc tag (mLAG-3-hFc protein) (mouse; human, UniProt Q61790 24-442)
T2 construct: Made in HEK293 cells; also called mouse LAG-3 extracellular domain protein; not shown: human IgG Fc fragment (hFc) of the pCpC vector
T2 sequence: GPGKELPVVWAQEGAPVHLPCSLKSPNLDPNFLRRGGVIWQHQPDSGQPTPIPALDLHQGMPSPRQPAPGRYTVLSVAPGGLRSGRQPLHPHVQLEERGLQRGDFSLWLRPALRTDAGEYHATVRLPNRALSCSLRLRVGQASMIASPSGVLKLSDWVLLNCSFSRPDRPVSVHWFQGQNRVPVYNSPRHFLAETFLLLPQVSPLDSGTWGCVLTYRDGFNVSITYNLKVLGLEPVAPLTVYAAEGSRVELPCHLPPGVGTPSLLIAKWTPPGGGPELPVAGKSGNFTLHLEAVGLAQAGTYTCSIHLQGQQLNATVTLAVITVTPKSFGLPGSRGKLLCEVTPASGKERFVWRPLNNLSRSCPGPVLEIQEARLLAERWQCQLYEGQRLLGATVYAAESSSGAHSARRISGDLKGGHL

T3: hFc tagged monkey LAG-3 protein (cLAG-3-hFc protein) (monkey; human)
T3 construct: Made in HEK293 cells; also called monkey LAG-3 extracellular domain protein; not shown: human IgG Fc fragment (hFc) of the pCpC vector
T3 chain: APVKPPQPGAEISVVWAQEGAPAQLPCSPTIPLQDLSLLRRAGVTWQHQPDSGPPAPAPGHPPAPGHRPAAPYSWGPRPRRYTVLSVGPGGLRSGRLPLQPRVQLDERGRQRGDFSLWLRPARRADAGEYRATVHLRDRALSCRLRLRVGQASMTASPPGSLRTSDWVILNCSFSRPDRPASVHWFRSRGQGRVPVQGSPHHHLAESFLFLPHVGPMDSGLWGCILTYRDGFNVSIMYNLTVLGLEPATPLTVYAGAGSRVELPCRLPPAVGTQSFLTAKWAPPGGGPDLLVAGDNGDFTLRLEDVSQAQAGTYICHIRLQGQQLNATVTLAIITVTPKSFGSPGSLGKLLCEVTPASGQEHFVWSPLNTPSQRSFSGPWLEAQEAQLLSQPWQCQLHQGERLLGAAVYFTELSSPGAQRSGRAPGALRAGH

B1: 556F6B8 mouse-human chimeric antibody (antibody, V domains shown)
VH: RVQLKQSGPGLVQPSQSLSITCTVSGFSLIKYGVHWVRQSPGEGLEWLGVIWRGGITDYNAAFMSRLSITKDNSKSQVFFKMNSLQADDTAIYYCAKWDGPLAMDYWGQGTSVTVSS
VL: DIVMTQSHKFLSTSVGDRVSITCKASQDVGTTVAWYQQKPGQSPKLLIYWASTRHTGVPDRFTGSGSGTDFTLTISNVQSEDLADYFCQQYSSYPYTFGGGTKLEIK
notes: also called mAb123-556F6B8; 556F8B8
B2: 105F1E10 mouse-human chimeric antibody (antibody, V domains shown)
VH: EVQLQQSGPELVKPGASVKMSCRASGYTFTDFKMHWMKQSHGKSLEWIGYIAPNNGGTAYNQKFRGKATLTVNESSNTAYMELRSLTSEDSAVYYCVDWDDVDYWGQGTTLTVSS
VL: DIKMTQSPSSMYASLGERVTITCKASQDINSYLSWFQQKSGKSPKTLIYRANRLVDGVPSRFSGSGSGQDYSLTISSLEYEDMGIYYCLQYVEFPLTFGAGTKLELK
notes: also called mAb009-105F1E10
B3: 405B8H3 mouse-human chimeric antibody (antibody, V domains shown)
VH: QVQLQQSGAELVRPGASVTLSCKASGYTFTDYEMHWVKQTPVHGLEWIGATDPETGNSAYNQKFKGKAIMTADKSSSTAYMELRSLTSEDSAVYYCISTGWNDWGQGTSLTVSS
VL: DIKMTQSPSSMYASLGERVTITCKASQDINSYLSWFQQKPGKSPKTLIYRADRLLDGVPSRFSGSGSGQDYSLTISSLEYGDMGIYYCLQYDEFPYTFGGGTKLEIK
notes: also called mAb103-405B8H3
B4: 409B11E12 mouse-human chimeric antibody (antibody, V domains shown)
VH: QVQLQQSGAELVRPGASVTLSCKASGYTFTDYEMHWVKQTTVHGLEWIGATDPETSYSAYNQKFKGKAILTADKSSSTAYMELRSLTSEDSAVYYCIATGWNDWGQGTSLTVSS
VL: DLKMTQSPSSMYASLGERVTITCKASQDINSYLSWFQQKPGKSPKTLIYRANRLLDGVPSRFSGSGSGQDYSLTISSLEYEDMGIYYCLQYDEFPYTFGGGTKLEIK
notes: also called mAb104-409B11E12
B5: 409D4E10 mouse-human chimeric antibody (antibody, V domains shown)
VH: QVQLQQSGAELVRPGASVTLSCKASGNTFTDYEMHWVKQTPVHGLEWIGATDPETDNTAYNQKFKGKAILTTDKSSSTAYMELRSLTSEDSAVYYCITSGWNDWGQGTSLTVSS
VL: DIKMTQSPSSMYASLGERVTITCKASQDINSYLSWFQQKPGKSPKTLIYRANRLLDGVPSRFSGSGSGQDYSLTISSLEYEDMGIYYCLQYNEFPYTFGGGTKLEIK
notes: also called mAb112-409D4E10
B6: 105F1E10 (LAG-3 mouse-human chimeric antibody) (antibody, V domains shown)
VH: EVQLQQSGPELVKPGASVKMSCRASGYTFTDFKMHWMKQSHGKSLEWIGYIAPNNGGTAYNQKFRGKATLTVNESSNTAYMELRSLTSEDSAVYYCVDWDDVDYWGQGTTLTVSS
VL: DIKMTQSPSSMYASLGERVTITCKASQDINSYLSWFQQKSGKSPKTLIYRANRLVDGVPSRFSGSGSGQDYSLTISSLEYEDMGIYYCLQYVEFPLTFGAGTKLELK
B7: 405B8H3 (LAG-3 mouse-human chimeric antibody) (antibody, V domains shown)
VH: QVQLQQSGAELVRPGASVTLSCKASGYTFTDYEMHWVKQTPVHGLEWIGATDPETGNSAYNQKFKGKAIMTADKSSSTAYMELRSLTSEDSAVYYCISTGWNDWGQGTSLTVSS
VL: DIKMTQSPSSMYASLGERVTITCKASQDINSYLSWFQQKPGKSPKTLIYRADRLLDGVPSRFSGSGSGQDYSLTISSLEYGDMGIYYCLQYDEFPYTFGGGTKLEIK
notes: also called mouse-human chimeric antibody 405B8H3
B8: 409B11E12 (LAG-3 mouse-human chimeric antibody) (antibody, V domains shown)
VH: QVQLQQSGAELVRPGASVTLSCKASGYTFTDYEMHWVKQTTVHGLEWIGATDPETSYSAYNQKFKGKAILTADKSSSTAYMELRSLTSEDSAVYYCIATGWNDWGQGTSLTVSS
VL: DLKMTQSPSSMYASLGERVTITCKASQDINSYLSWFQQKPGKSPKTLIYRANRLLDGVPSRFSGSGSGQDYSLTISSLEYEDMGIYYCLQYDEFPYTFGGGTKLEIK
B9: 409D4E10 (LAG-3 mouse-human chimeric antibody) (antibody, V domains shown)
VH: QVQLQQSGAELVRPGASVTLSCKASGNTFTDYEMHWVKQTPVHGLEWIGATDPETDNTAYNQKFKGKAILTTDKSSSTAYMELRSLTSEDSAVYYCITSGWNDWGQGTSLTVSS
VL: DIKMTQSPSSMYASLGERVTITCKASQDINSYLSWFQQKPGKSPKTLIYRANRLLDGVPSRFSGSGSGQDYSLTISSLEYEDMGIYYCLQYNEFPYTFGGGTKLEIK
B10: 556F6B8 (LAG-3 mouse-human chimeric antibody) (antibody, V domains shown)
VH: RVQLKQSGPGLVQPSQSLSITCTVSGFSLIKYGVHWVRQSPGEGLEWLGVIWRGGITDYNAAFMSRLSITKDNSKSQVFFKMNSLQADDTAIYYCAKWDGPLAMDYWGQGTSVTVSS
VL: DIVMTQSHKFLSTSVGDRVSITCKASQDVGTTVAWYQQKPGQSPKLLIYWASTRHTGVPDRFTGSGSGTDFTLTISNVQSEDLADYFCQQYSSYPYTFGGGTKLEIK
notes: also called 556F8B8

How the values were obtained:
[1] = molecular target: T1, human LAG-3 on cells (HEK293-hLAG-3 …); assay: FACS, HEK293-hLAG-3, antibody 0.013 nM
Text: (§1) The pIRES plasmid with the monkey-derived full-length gene was transfected into the HEK293 cell line to construct a HEK293 stable cell line containing monkey LAG-3 (herein referred to as HEK293-cLAG-3 stable cell line). The HEK293-hLAG-3 stable cell line and HEK293-cLAG-3 stable cell line were expanded in a T-75 cell culture flask to a 90% confluence. The medium was aspirated, and the cells were washed with HBSS (Hanks' Balanced Salt Solution) 1-2 times, then treated with a enzyme-free cell dissociation fluid (Versene solution: Life technology) and the cells were collected. The cells were washed with HBSS buffer for 1-2 times. After counted, the cells were diluted with HBSS to 1-2×10⁶ cells per ml, added with 1% goat serum blocking solution, incubated on ice for 20-30 minutes, and then washed with HBSS for 2 times by centrifugation. The collected cells were suspended in the FACS buffer (HBSS+1% BSA) to 2×10⁶ cells/ml, added as 100 microliters per well to a 96-well FACS reaction plate, added with 100 microliters per well of the antibody sample to be tested, incubated on ice for 1-2 hours. The plate was washed twice with the FACS buffer by centrifugation, added with 100 microliters of fluorescent (Alexa 488)-labeled secondary antibodies per well, and incubated on ice for 0.5-1.0 hours. The plate was washed 2-3 times with FACS buffer by centrifugation, added with 100 μl fixative solution (4% Paraformaldehyde) per well to suspend the cells. 5-10 minutes later, it was washed 1-2 times with FACS buffer by centrifugation. The cells were suspended with 100 microliters of FACS buffer, FACS (FACSCalibur, BD) was used for detection and the results were analyzed.

[2] = molecular target: T1, human LAG-3 on cells (HEK293-hLAG-3 …); assay: FACS, HEK293-hLAG-3, antibody 8.000 nM
Text: as §1

[3] = molecular target: T1, human LAG-3 on cells (HEK293-hLAG-3 …); assay: FACS, HEK293-hLAG-3, antibody 200.000 nM
Text: as §1

[4] = molecular target: T2, mouse LAG-3 protein with hFc tag …; assay: ELISA, mLAG-3-hFc coated; 0.0667 nM
Method: (§2) The plate was sealed with plastic film and incubated overnight at 4° C. The plate was washed 2 times with the plate washing solution (PBS+0.01% Tween20) on the next day, and added with the blocking solution (PBS+0.01% Tween20+1% BSA) and blocked at room temperature for 1-2 hours. The blocking solution was poured out, and the plate was added with 50-100 μl of the antibody sample to be tested to each well, incubated at 37° C. for 1-2 hours, and washed 2-3 times with a plate washing solution (PBS+0.01% Tween20). HRP (horseradish peroxidase) labeled secondary antibody was added, and the plate was incubated at 37° C. for 1-2 hours, and washed 2-3 times with a plate washing solution (PBS+0.01% Tween20). 100 μl of TMB substrate was added to each well. After incubated at room temperature for 15-30 minutes, the plate was added with 100 μl of stop solution (1.0N HCl) to each well.

[5] = molecular target: T3, hFc tagged monkey LAG-3 protein …; assay: ELISA, cLAG-3-hFc coated; 0.0067 nM
Method: as §2

[6] = molecular target: T2, mouse LAG-3 protein with hFc tag …; assay: ELISA, mLAG-3-hFc coated; 0.6667 nM
Method: as §2

Binder	Mean fluorescence intensity [1]	Mean fluorescence intensity [2]	Mean fluorescence intensity [3]	OD450 [4] [OD450]	OD450 [5] [OD450]	OD450 [6] [OD450]
B1	4.2	93.5	125	–	–	–
B2	3.6	99.4	175	–	–	–
B3	4	137	169	–	–	–
B4	4.1	136	171	–	–	–
B5	4	129	151	–	–	–
B6	–	–	–	0.08	0.26	0.09
B7	–	–	–	0.08	0.46	0.11
B8	–	–	–	0.09	0.39	0.1
B9	–	–	–	0.13	0.64	0.11
B10	–	–	–	0.11	0.46	0.15
